{"source": "patent US20250289904A1", "about": "(UMC UTRECHT HOLDING B V, published 2025)", "key": {"[1]": {"biological_target": "plasmin-cleaved von Willebrand factor (cVWF) (human) (UniProt P04275)", "experiment": "capture ELISA, cVWF in buffer, detection with biotinylated VHH B9"}, "[2]": {"biological_target": "plasmin-cleaved von Willebrand factor (cVWF) (human) (UniProt P04275)", "experiment": "capture ELISA, VHH coated on plate, concentration series of VWF and cVWF in buffer, detection with biotinylated VHH B9; reference: intact VWF"}, "[3]": {"biological_target": "plasmin-cleaved von Willebrand factor (cVWF) (human) (UniProt P04275)", "experiment": "capture ELISA, cVWF spiked in citrated normal pooled plasma, detection with biotinylated VHH B9"}, "[4]": {"biological_target": "T1, intact von Willebrand factor (VWF) (human, UniProt P04275 764-2813)", "T1 construct": "also called uncleaved VWF; purified VWF", "T1 sequence (P04275 764-2813 limits assumed)": "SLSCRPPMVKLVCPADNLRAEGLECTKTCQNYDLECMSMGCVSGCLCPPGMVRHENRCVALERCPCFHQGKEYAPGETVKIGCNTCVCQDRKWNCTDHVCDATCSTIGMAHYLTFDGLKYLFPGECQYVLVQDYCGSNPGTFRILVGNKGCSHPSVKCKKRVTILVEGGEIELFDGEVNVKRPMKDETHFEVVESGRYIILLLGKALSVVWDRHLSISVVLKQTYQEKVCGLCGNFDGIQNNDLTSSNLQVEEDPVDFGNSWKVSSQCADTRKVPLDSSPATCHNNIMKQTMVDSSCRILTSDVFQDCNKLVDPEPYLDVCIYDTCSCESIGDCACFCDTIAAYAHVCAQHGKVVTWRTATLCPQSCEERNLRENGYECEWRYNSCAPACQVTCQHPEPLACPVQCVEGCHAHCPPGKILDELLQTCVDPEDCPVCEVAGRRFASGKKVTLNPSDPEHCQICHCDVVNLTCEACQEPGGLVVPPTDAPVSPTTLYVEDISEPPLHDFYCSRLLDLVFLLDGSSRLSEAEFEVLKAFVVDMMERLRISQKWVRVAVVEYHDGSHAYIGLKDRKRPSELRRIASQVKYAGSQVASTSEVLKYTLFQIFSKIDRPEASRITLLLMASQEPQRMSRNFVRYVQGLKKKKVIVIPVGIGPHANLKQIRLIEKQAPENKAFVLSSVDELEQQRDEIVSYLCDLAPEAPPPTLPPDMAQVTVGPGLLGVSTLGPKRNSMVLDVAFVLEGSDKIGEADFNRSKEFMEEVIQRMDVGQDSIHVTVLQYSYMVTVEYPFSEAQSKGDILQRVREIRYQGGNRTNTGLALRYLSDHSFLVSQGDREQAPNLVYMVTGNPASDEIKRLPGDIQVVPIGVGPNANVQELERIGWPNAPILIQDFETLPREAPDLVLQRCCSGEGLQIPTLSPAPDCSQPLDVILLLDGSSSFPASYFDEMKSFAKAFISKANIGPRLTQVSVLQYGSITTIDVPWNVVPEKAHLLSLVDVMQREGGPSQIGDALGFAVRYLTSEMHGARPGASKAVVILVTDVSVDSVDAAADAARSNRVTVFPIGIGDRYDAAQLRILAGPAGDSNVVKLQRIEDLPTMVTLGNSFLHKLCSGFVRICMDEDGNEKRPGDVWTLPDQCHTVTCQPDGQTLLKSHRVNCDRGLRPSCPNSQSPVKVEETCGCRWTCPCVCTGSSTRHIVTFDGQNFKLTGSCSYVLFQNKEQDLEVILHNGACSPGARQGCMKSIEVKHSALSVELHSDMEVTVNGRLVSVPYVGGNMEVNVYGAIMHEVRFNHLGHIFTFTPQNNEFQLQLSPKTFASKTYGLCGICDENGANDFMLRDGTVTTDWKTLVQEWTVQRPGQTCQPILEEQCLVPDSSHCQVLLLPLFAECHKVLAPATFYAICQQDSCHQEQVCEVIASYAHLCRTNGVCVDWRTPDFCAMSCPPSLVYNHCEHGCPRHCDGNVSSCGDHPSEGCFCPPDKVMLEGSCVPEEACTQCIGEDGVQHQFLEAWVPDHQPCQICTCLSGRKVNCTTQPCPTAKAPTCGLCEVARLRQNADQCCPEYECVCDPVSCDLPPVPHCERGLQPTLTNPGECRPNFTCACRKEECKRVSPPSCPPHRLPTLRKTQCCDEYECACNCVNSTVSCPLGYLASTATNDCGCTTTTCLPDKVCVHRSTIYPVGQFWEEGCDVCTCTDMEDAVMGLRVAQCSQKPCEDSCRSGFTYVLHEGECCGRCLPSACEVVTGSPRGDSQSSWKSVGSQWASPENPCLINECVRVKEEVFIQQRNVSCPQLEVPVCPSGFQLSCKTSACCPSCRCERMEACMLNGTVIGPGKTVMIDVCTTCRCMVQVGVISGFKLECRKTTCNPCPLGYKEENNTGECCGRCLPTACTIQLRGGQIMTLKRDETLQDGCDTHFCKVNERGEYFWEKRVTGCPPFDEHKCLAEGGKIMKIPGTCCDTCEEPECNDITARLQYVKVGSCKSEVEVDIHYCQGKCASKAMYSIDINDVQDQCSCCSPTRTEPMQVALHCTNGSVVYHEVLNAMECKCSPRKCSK", "experiment": "capture ELISA, VHH coated on plate, concentration series of VWF in buffer, detection with biotinylated VHH B9 and streptavidin-poly HRP"}}, "data": [{"binder": "cVWF capture VHH #1 (F5) (VHH, not shown: small tags and cut ends) VHH: EVQLVESGGGLVQAGGSLRLSCAASGQTDSTYTGGWFRQAPGKEREFVATFSWNSGRTHFADSVKGRFTISRDNAKSTVFLQMNSLKPEDTAVYYCAAHRTSLTDYSFRYWGQGTHVTVSS", "values": [{"measurement": "sensitivity of the cVWF ELISA", "setting": "[1]", "result": 8, "unit": "ng/mL"}, {"measurement": "fold discrimination between VWF and cVWF", "setting": "[2]", "result": 144, "unit": "fold"}, {"measurement": "sensitivity of the cVWF ELISA", "setting": "[3]", "result": 8, "unit": "ng/mL"}]}, {"binder": "negative control VHH-R2 (VHH, Production and tags of this control are not described) VHH: QVQLQESGGGLVQAGGSLRLSCAASGRATSGHGHYGMGWFRQVPGKEREFVAAIRWSGKETWYKDSVKGRFTISRDNAKTTVYLQMNSLKPEDTAVYYCAARPVRVDDISLPVGFDYWGQGTQVTVSS", "values": [{"measurement": "binding result", "setting": "[4]", "result": "no binding"}]}, {"binder": "cVWF capture VHH #2 (G5) (VHH, not shown: small tags and cut ends) VHH: EVQLVESGGGLVQAGGSLRLSCAVSGRTVSNSMAWFRQAPEKEREFVAAISWNSGRTDYADSVKGRFTISRDNAKNTVDLQMNSLKAEDTAVYYCAVHRVRIEPKEYLYWGQGTQVTVSS", "values": [{"measurement": "sensitivity of the cVWF ELISA", "setting": "[1]", "result": 4, "unit": "ng/mL"}, {"measurement": "sensitivity of the cVWF ELISA", "setting": "[3]", "result": 4, "unit": "ng/mL"}]}]}
